# Laboratory results published in publication PMC11257444 (bioRxiv, 2024).
# B1: NLG-1 ectodomain (purified) (receptor)
# chain: YDVRSVTTSWGMVRGEVVSPEGDDLPPVAQYLGIPYGVAPTGQYRFNMAISAAKWTHMPKDARKVSPVCIQTDMPELSETKAFKHTSAQRFDFNHRLLPHLKKQSEDCLYMNIYVPERLEISRDNYLPVMVIVHGEEYGWGTGNAFNGTTLAAYGHIIVVTLNYRLGVFGFLGRCESSSCSGNSGISDLVSALTMLNVILPSFGGDSKSVTLAGWGSGASLVSLLMASPLTQPGRRLFRRAILLDGSALSPWAISQNPQQYFMQLAEELACAPKNRTSSFNDNVDTIVRCMQVHSSENITKAVLKIDVPTFLSGFAPIVDGQLIPNKPQVSFSTQYGSLFREIDLLVGISSNPSHHMISNEDLKVGISKEKRMRIFRSLVRNLYDFHREEILASIINEYTDWENPRDHPKSIRNGVLNALSDVLYTAPLIETLRSHSADEVRKEANTFMFAFAHETRSWSQEQPNSGIRGSLSGDIVPYIFGYPLAQGDSEERLYSGFNTDDKGISKVMMHYVSNFVKSGDPSKPNPMSKNFPMGDVFHSTAWPQFDQPNREAYLEITDRPRVKNYYRNAQVGFWNNFIPQLHKNGKETEPVGEEHHLLSDHFRKDSYFGKTRHFSSYANLPFPPPPMPPSPPPELTTKPKPSESPTTLQTTTESEKAAAGSFTGKAL
# B2: INS-6 (purified, SPR) (ligand)
# chain: VPAPGETRACGRKLISLVMAVCGDLCNPQEGKDIATECCGNQCSDDYIRSACCP
# Tests used:
# Test in all cases: SPR
# [1] = biological target: HIR-1 ectodomain (purified) (C. elegans) (UniProt O76385)
# [2] = biological target: ZIG-4 (purified, SPR) (C. elegans) (UniProt G5ECB1)
# [3] = biological target: ZIG-5 (purified, SPR) (C. elegans) (UniProt Q9XXD7)
# [4] = biological target: NRX-1 LNS6 domain (purified) (C. elegans)
# [5] = biological target: T1, ZIG-4 (purified, SPR) (C. elegans, UniProt G5ECB1 17-253)
# T1 sequence: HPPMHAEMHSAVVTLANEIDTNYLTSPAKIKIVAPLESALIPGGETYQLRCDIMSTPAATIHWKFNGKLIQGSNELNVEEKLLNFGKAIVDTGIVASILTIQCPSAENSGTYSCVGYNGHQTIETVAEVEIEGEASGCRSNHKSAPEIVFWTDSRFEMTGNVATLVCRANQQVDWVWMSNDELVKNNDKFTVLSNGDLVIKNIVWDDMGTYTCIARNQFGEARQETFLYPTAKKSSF
# [6] = biological target: T2, ZIG-5 (purified, SPR) (C. elegans, UniProt Q9XXD7 26-260)
# T2 sequence: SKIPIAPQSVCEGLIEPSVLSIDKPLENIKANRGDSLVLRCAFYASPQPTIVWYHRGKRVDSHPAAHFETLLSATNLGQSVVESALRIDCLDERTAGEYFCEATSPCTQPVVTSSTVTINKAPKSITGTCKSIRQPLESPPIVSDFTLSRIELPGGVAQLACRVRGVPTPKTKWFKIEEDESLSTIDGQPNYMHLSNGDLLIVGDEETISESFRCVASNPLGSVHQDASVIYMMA
molecule,measurement,setting,value
B0222.11 (purified) (from UniProt Q4PIU5) (ligand),Kd,[1],0.5 nM
"INS-1 (purified, SPR) (ligand)",Kd,[2],> 1000 nM
same,Kd,[3],3 nM
B1,Kd,[4],48000 nM
B2,Kd,[5],0.056 nM
same,Kd,[6],> 1000 nM
